Substrate: CCCC(=O)SCC[N+](C)(C)C
Test: purified protein
Type: biochemical, Homo sapiens
Conditions: 24 °C, 317 pM enzyme, 0.1 mM DTNB, 0.005-3 mM substrate

B1: human butyrylcholinesterase (Homo sapiens) (protein)
chain: EDDIIIATKNGKVRGMNLTVFGGTVTAFLGIPYAQPPLGRLRFKKPQSLTKWSDIWNATKYANSCCQNIDQSFPGFHGSEMWNPNTDLSEDCLYLNVWIPAPKPKNATVLIWIYGGGFQTGTSSLHVYDGKFLARVERVIVVSMNYRVGALGFLALPGNPEAPGNMGLFDQQLALQWVQKNIAAFGGNPKSVTLFGESAGAASVSLHLLSPGSHSLFTRAILQSGSFNAPWAVTSLYEARNRTLNLAKLTGCSRENETEIIKCLRNKDPQEILLNEAFVVPYGTPLSVNFGPTVDGDFLTDMPDILLELGQFKKTQILVGVNKDEGTAFLVYGAPGFSKDNNSIITRKEFQEGLKIFFPGVSEFGKESILFHYTDWVDDQRPENYREALGDVVGDYNFICPALEFTKKFSEWGNNAFFYYFEHRSSKLPWPEWMGVMHGYEIEFVFGLPLERRDNYTKAEEILSRSIVKRWANFAKYGNPNETQNNSTSWPVFKSTEQKYLTLNTESTRIMTKLRAQQCRFWTSFFPKVLEMTGNIDEAEWEWKAGFHRWNNYMMDWKNQFNDYTSKKESCVGL
- Km: 100 µM

Reference: paper PMC2790002
